Measured values published in patent publication US20020103133A1.
Non-standard residues stand in square brackets, D forms with d. Dox = doxorubicin conjugated to the C-terminal Leu; hPhe = N[C@@H](CCc1ccccc1)C(=O)O

Target: MMPs of HT1080 cells
Assay: cell-based or functional assay

Fraction of L-Dox, 0 hours, minus MMP inhibitor: 0
Fraction of L-Dox, 0 hours, plus MMP inhibitor: 0
Fraction of L-Dox, 3 hours, minus MMP inhibitor: 0.1
Fraction of L-Dox, 3 hours, plus MMP inhibitor: 0.004
Fraction of L-Dox, 5.5 hours, minus MMP inhibitor: 0.2
Fraction of L-Dox, 5.5 hours, plus MMP inhibitor: 0.01
Fraction of L-Dox, 8 hours, minus MMP inhibitor: 0.46
Fraction of L-Dox, 8 hours, plus MMP inhibitor: 0.02
B1: acetyl-P-L-G-Hof-(N,N-dimethyl-K)-L-Dox (peptide)
peptide: Ac-PLG[hPhe]K(Me2)L-Dox
